Columns and labels:
[1] = target: T1, human PD-L1 expressed on cells (human, UniProt Q9NZQ7 19-290); experiment: FACS, IFN-gamma stimulated HCC827 cells
T1 construct: whole, on cells; also called hPD-L1 expressed on HCC827; hPD-L1 on MC38/hPD-L1 cells
Method: Log phase IFN-γ stimulated (500U/ml for 2 days) HCC827 cells were collected and resuspended in blocking buffer (5% BSA+PBS). 2×10\hat{ }5 cells were added to each tube and then washed once with PBS (1500 rpm, 5 mins, RT). The 100 μl/tube serial diluted PD-L1 antibodies purified from hybridoma supernatant in blocking buffer were added into corresponding tubes and were incubated at 4° C. for 1 hr. The cells were then washed twice with 1 ml PBS, followed by adding 100 μl/tube of 2nd antibody (1:400 anti-mIgG (H+L)-PE, Cell signaling) in blocking buffer. The cells were incubated at 4° C. for 1 hr and then washed twice with PBS, followed by resuspending cells in 150 μl PBS for each sample. The cells were then transferred into FACS tube and the bindings of the antibodies to the cells were detected using flow cytometry (BD Accuri C6) (see FIG. 5A).

[2] = target: T2, human PD-L1-Fc mutant E58A (human); experiment: ELISA on captured PD-L1-Fc, as in Example 18A
T2 construct: Position 58 counts on native human PD-L1 (NP_054862.1); also called E58A mutant
T2 sequence (chain, as listed by the source E58A E58A limits assumed): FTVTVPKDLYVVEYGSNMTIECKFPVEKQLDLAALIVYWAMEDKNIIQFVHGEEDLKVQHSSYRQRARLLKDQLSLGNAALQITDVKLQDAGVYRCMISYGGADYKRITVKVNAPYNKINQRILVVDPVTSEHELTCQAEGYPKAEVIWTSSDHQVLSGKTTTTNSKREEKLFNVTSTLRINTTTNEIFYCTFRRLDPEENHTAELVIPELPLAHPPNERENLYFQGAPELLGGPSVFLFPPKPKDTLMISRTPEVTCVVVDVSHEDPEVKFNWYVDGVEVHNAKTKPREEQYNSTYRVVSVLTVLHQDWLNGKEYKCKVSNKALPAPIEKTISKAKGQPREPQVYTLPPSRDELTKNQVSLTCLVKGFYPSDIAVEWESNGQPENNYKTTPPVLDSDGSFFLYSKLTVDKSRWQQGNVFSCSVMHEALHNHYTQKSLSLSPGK

[3] = target: T3, wild type human PD-L1-Fc protein (SEQ ID NO: 107) (human); experiment: ELISA on captured PD-L1-Fc, as in Example 18A
T3 construct: Extracellular human PD-L1 (amino acid 19-238) with Fc fragment of human IgG1, expressed in 293T cells and used as culture supernatant; also called WT PD-L1; wild-type PD-L1
T3 sequence (chain, as listed by the source limits assumed): as the sequence (chain, as listed by the source E58A E58A limits assumed) above, with A40E counted along it

[4] = target: T4, Recombinant Mouse PD-L1/CD274 Protein (mPD-L1-his) (mouse, UniProt Q9EP73 19-238); experiment: ELISA, 20 ug/ml antibody on coated mouse PD-L1 (his-tagged per text, mPD-L1-Fc per sheet title)
T4 construct: range 19-238; ACRO Biosystem PD1-M5220; also called mouse PD-L1-his
T4 sequence (Q9EP73 other isoform, or with tags, fused parts or gaps limits assumed): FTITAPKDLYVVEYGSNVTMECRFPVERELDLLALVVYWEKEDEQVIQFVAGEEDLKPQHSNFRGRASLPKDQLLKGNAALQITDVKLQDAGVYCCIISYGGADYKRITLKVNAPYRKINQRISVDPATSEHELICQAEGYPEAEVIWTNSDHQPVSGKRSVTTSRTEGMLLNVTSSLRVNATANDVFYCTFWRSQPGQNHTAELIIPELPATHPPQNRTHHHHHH
Method: High-binding clear polystyrene 96 well plates (Nunc) were coated with 100 μl/well of 1 μg/ml mouse PD-L1-his in high pH coating buffer and incubated overnight at 4° C. Then plates were washed once on an automatic plate washer using washing buffer (PBS+0.1% Tween 20 (Sigma)). 200 μl of blocking buffer (PBS+1% BSA+1% normal goat serum+0.05% Tween-20) was added to each well and incubated for 2 hours at room temp. Then add 20 μg/ml purified hybridoma mouse antibodies in dilution buffer (PBS+1% BSA+1% normal goat serum+0.01% Tween-20) and incubate for 1 hour at RT. The plates were then washed 3 times with 250 μl/well washing buffer. 100 μl/well of a solution of HRP conjugated goat anti-mouse Fc antibody (Abcam) in dilution buffer was then added to each well of the plate. After that the ELISA plates were allowed to incubate for 60 min at RT then plates were washed 3 times with 250 μl/well washing buffer. Finally, 100 μl/well of TMB was added to each well and the reaction was terminated using 0.64M H₂SO₄. The plates were read on a Thermo Multiscan FC at 450 nM (see FIG. 6F).

[5] = target: T5, Recombinant Human PD-L1/CD274 Protein (hPD-L1-his) (human, UniProt Q9NZQ7 19-238); experiment: ELISA, purified mouse antibody on coated hPD-L1-his
T5 construct: range 19-238; ACRO Biosystem PD1-H5229, made in HEK293; also called human PD-L1-his; hPD-L-his
T5 sequence (Q9NZQ7 other isoform, or with tags, fused parts or gaps limits assumed): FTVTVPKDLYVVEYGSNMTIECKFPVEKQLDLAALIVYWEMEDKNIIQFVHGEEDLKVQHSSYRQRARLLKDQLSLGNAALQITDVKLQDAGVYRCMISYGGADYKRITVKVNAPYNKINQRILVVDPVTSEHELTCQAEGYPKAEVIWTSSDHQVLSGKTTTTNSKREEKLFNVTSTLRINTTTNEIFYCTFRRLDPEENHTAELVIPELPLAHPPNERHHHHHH
Method: High-binding clear polystyrene 96 well plates (Nunc) were coated with 100 μl/well of a 0.5 μg/ml hPD-L1-his in high pH coating buffer and incubated overnight 4° C. Then plates were washed once on an automatic plate washer using washing buffer (PBS+0.1% Tween 20 (Sigma)). 200 μl of blocking buffer (PBS+1% BSA+1% normal goat serum+0.05% Tween-20) was added to each well and incubated 2 hours at room temp. Then add serially diluted purified antibodies with dilution buffer (PBS+1% BSA+1% normal goat serum+0.01% Tween-20) and incubate for 1 hour at RT. The plates were then washed 3 times using the method described above. 100 μl/well of a solution of HRP conjugated goat anti-mouse Fc antibody (Abcam) in dilution buffer was then added to each well of the plate. After that the ELISA plates were allowed to incubate for 60 min at RT then plates were washed 3 times with 250 μl/well washing buffer. Finally, 100 μl/well of TMB was added to each well and was terminated using 0.64M H₂SO₄. The plates were read on a Thermo Multiscan FC at 450 nM (see FIG. 3).

[6] = target: T6, hPD-L2-Fc (human, UniProt Q9BQ51 20-219); experiment: ELISA, plate coated with hPD-L2-Fc
T6 construct: Acrobiosystems PD2-H5251; also called human PD-L2 protein; not shown: Fc tag
T6 sequence (looked up): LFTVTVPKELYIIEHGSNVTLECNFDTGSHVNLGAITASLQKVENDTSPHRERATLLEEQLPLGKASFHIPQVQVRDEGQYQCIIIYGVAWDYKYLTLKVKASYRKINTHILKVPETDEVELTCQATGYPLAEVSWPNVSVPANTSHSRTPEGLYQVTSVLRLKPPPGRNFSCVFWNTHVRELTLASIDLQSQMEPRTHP
Method: Briefly, high-binding clear polystyrene 96 well plates (Nunc) were coated with 100 μl/well of a 0.5 μg/ml human PD-L1-Fc (Acrobiosystems, Cat #PD1-H5258) or 100 μl/well of a 1 μg/ml hPD-L2-Fc (Acrobiosystems, Cat #PD2-H5251), respectively, in high pH coating buffer (0.16% Na2CO3+0.3% NaHCO₃, pH 9.8) and incubated overnight at 4° C. Then the plates were washed once on an automatic plate washer using washing buffer (PBS+0.1% Tween 20 (Amresco)). 200 μl of blocking buffer (PBS+1% BSA+1% normal goat serum+0.05% Tween-20) was added to each well and incubated for 2 hours at room temp. Then add 100 μl 2 μg/ml purified PD-L1 antibodies with dilution buffer (PBS+1% BSA+1% normal goat serum+0.01% Tween-20) and incubate for 1 hour at RT. The plates were then washed 3 times with washing buffer. 100 μl/well of a solution of HRP conjugated goat anti-mouse IgG antibody (1:20000, Abcam) in dilution buffer was then added to each well of the plate. After that the ELISA plates were allowed to incubate for 60 min at RT then the plates were washed 3 times with 250 μl/well washing buffer. Finally, 100 μl/well of TMB was added to each well for 15 min and the reaction was terminated using 50 ul/well of 0.16 M/L sulfuric acid. The plates were read on a Thermo Multiscan FC at 450 nM (see FIG. 6G).

[7] = target: T5, Recombinant Human PD-L1/CD274 Protein …; experiment: ELISA, coated hPD-L1-his, acidic wash and incubation after binding at pH7.4
Method: (§1) The pH-dependent binding affinity was further measured at various pH values, such as pH4, pH4.5, pH5.0, pH5.5, pH6.0, pH7.4. The measurement by ELISA was conducted similarly to the method described above. High-binding clear polystyrene 96 well plates were coated with 100 μl/well of a 0.5 μg/ml hPD-L1-his in high pH coating buffer and incubated overnight at 4° C. Then the coated plates were washed 3 times with shaking for 10s on an automatic plate washer with PBS+0.1% Tween 20 (Amresco). Then 200 μl of blocking buffer (1% BSA (Solarbio)+1% normal goat serum (Solarbio)+0.05% Tween 20 (Amresco)) was added to each well and the plates were then incubated for 2 hours at room temperature and washed 3 times as above. […] The plates were then washed once with 250 μl/well washing buffer at pH7.4, pH6.0, pH5.5, pH5.0, pH4.5 or pH4.0 and then 100 μl/well pH7.4 or pH5.5 washing buffer was added and the incubation was continued for 2 hours at RT with shaking. Afterwards, the plates was washed 3 times washing buffer at pH7.4 and 100 μl/well of a solution of HRP conjugated goat anti-hIgG HRP antibody (1:20000, Abcam) in pH7.4 dilution buffer was then added to each well of the plate. After that the plates were allowed to incubate for 60 min at room temperature followed by washing 3 times with 250 μl/well pH7.4 washing buffer. Finally, 100 μl/well of TMB was added to each well for 15 min and the reaction was terminated using 50 μl/well of 0.16M/L sulfuric acid. The plates were read on a Thermo Multiscan FC at 450 nm (see FIG. 23A-23F). The measurements were performed in triplicate.

[8] = target: T5, Recombinant Human PD-L1/CD274 Protein …; experiment: ELISA on coated hPD-L1-his; bound at pH7.4, then 2 h at pH7.4
Method: as §1

T1 sequence (Q9NZQ7 19-290): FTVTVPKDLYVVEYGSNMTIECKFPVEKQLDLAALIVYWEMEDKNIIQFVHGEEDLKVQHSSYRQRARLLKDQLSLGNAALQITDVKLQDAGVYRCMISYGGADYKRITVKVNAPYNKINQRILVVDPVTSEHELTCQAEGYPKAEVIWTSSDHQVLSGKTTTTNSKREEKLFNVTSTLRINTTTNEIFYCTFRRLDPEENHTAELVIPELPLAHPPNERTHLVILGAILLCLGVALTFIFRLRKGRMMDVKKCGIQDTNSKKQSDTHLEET

B1: 4B6 (antibody, V domains shown)
VH: EVQLQQSGPELVKPGASVKISCKASGYVFTDYYMNWVKQSHGKSLEWIGDINPNNGGTSYNHKFKGKATVTVDKSSRTAYMELLSLTSEDSAVYYCVKWGDGPFAYWGQGTLVTVSA
VL: DIVMTQSQKFMSTSVGDRVSITCKASQNVGAAVAWYQQKPGQSPKLLIYSASNRYTGVPDRFTGSGSGTDFTLTISNMQSEDLADYFCQQYSNYPTFGSGTKLGIK
notes: Mouse monoclonal purified from hybridoma; also called mouse monoclonal antibody 4B6
EC50 (read off the curve) [1]: ~0.04 µg/mL
% of binding of Ab to E58A mutant vs. that to WT PD-L1 [2]: 69.6%
Mean OD450 [2]: 1.04 OD450
OD450 nM of sample-1 [2]: 1.06 OD450
OD450 nM of sample-2 [2]: 1.01 OD450
Mean OD450 [3]: 1.49 OD450
OD450 nM of sample-1 [3]: 1.43 OD450
OD450 nM of sample-2 [3]: 1.54 OD450
binding result [4]: no binding (tested: 20 ug/ml)
EC50 (read off the curve) [5]: ~0.01 µg/mL
binding result [6]: no binding (tested: 2 ug/ml)

B2: 22C9-C (antibody, V domains shown)
VH: QVQLQQSGAELVKPGASVKLSCKASGYTFTSYWMHWVWQRPGQGLEWIGMIHPNSDITNCNENFKHTVTLTVDKSSSTAYMQLSSLTSEDSAVFYCARSDGSSYWYFDVWGTGTTVTVSS
VL: SIVMTQTPKFLSVSAGDRVTITCKAGQSVNNDVAWYQQKPGQSPKLLIYYASNRYTGVPDRFTGSGYGTDFTFTISTVQAEDLAVYFCQQDFSSPLTFGAGTKLELK
notes: Mouse variable regions fused to a human IgG1 constant region; also called 22C9-chimeric; chimeric antibody 22C9
binding signal at pH5 as percent of the signal at pH7.4 [7]: < 50%
binding signal at pH5.5 as percent of the signal at pH7.4 [7]: < 75%
EC50 (read off the curve) [8]: ~0.06 µg/mL

B3: 23F11 (antibody, V domains shown)
VH: QVQLQQPGAELVKPGASVKLSCKASGYSFTTYWMHWVKQRPGQGLEWIGMIQPNSGGTKYNEKFKKKATLTVDKSSTTASMELSSLTSEDSAVYYCARGAGTVDYFDYWGQGSTLTVSS
VL: DIVLTHSPVSLAVSLGQRATISCRASESVDIYGNSFMHWYQQKPGQPPKLLIYRASNLESGIPARFSGSGSRTDFTLTINPVEADDVATYYCQQSTEDPYTFGGGTKLEIK
notes: also called mouse monoclonal antibody 23F11; clone 23F11
EC50 (read off the curve) [1]: ~0.07 µg/mL
% of binding of Ab to E58A mutant vs. that to WT PD-L1 [2]: 9.9%
Mean OD450 [2]: 0.338 OD450
OD450 nM of sample-1 [2]: 0.383 OD450
OD450 nM of sample-2 [2]: 0.292 OD450
Mean OD450 [3]: 1.71 OD450
OD450 nM of sample-1 [3]: 1.65 OD450
OD450 nM of sample-2 [3]: 1.76 OD450
binding result [4]: no binding (tested: 20 ug/ml)
EC50 (read off the curve) [5]: ~0.006 µg/mL
binding result [6]: no binding (tested: 2 ug/ml)

Source: patent US20210009693A1 (MABSPACE BIOSCIENCES SUZHOU, published 2021)
